Data from the supplement of paper PMC9732359.
± gives the uncertainty stated by the source.

Experiment: protein stability index of a GFP-peptide fusion (yeast GPS) (PSI 1-4); higher = more stable; sorted into four equal gates, so the index is relative within each strain
How it was run: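 Tiled 17-residue peptides from yeast proteins were fused downstream of GFP on a plasmid that also expresses Cherry, and the pooled library was carried in yeast. Mid-log cultures grown in leucine-free medium were sorted into four equal gates by GFP/Cherry fluorescence ratio. Plasmids from each gate were PCR-amplified and Illumina-sequenced, and reads were assigned to strains by barcodes. Each peptide's protein stability index is the sum, over gates, of the gate's read frequency multiplied by its gate number.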

Sequence	protein stability index (doa10∆)	protein stability index (pdr5∆)	protein stability index (san1∆)	protein stability index (ubr1∆)
NISHLLEIASSIDCLLI [SWI1]	2.21 ± 0.068	2.16 ± 0.046	2.29 ± 0.078	2.04 ± 0.035
VPTGGASSAAAGAAGAA [RPP2B]	2.88 ± 0.11	3.04 ± 0.083	3.17 ± 0.07	2.97 ± 0.1
NQSAYEWNGKSFQKKSN [ISW2]	3.16 ± 0.11	3.12 ± 0.17	3.09 ± 0.064	2.99 ± 0.13
DLPDTEGLELLGWIHTQ [PRP8]	2.75 ± 0.093	2.79 ± 0.085	3.22 ± 0.051	3.27 ± 0.045
YLAHEDNKEKDFELEIS [PRE10]	2.84 ± 0.17	2.86 ± 0.12	3.23 ± 0.1	3.33 ± 0.072
WTDPNLKSSLADVLSIL [RPN1]	2.94 ± 0.15	2.98 ± 0.14	2.94 ± 0.096	2.65 ± 0.068
DSHKRIPDMSKNVELGW [SNU114]	3.06 ± 0.17	3.28 ± 0.11	2.79 ± 0.13	3.41 ± 0.097
DKSLDSSNASFNNQGKL [MED1]	2.98 ± 0.045	3.07 ± 0.043	2.68 ± 0.035	2.99 ± 0.045
SHAVEFFMSERSSRLHI [YML103C/NUP188]	2.5 ± 0.067	2.73 ± 0.079	2.75 ± 0.087	2.4 ± 0.049
QSTNLNRSAKNSKNDSA [YCS4]	2.53 ± 0.05	2.63 ± 0.05	2.67 ± 0.064	2.79 ± 0.046
GAHLGRFVIWTEAAFTK [RPL4A]	2.87 ± 0.21	3.04 ± 0.2	–	2.54 ± 0.25
FLKLYVLVKWTRTIKQN [RGR1]	1.41 ± 0.11	1.85 ± 0.14	2.38 ± 0.17	1.15 ± 0.091
GHSQFTSHYQNYHPNAS [RPN4]	2.56 ± 0.049	2.44 ± 0.044	2.15 ± 0.09	2.22 ± 0.038
SDIESLEALMDILLCYQ [SRB8]	2.84 ± 0.13	2.74 ± 0.2	3.03 ± 0.19	2.29 ± 0.2
KLLQLFLTPMDSIDLAP [YML103C/NUP188]	1.9 ± 0.071	1.54 ± 0.062	1.76 ± 0.092	1.36 ± 0.038
VKDWLYDSRPLEEDSKK [PRP8]	2.95 ± 0.19	2.91 ± 0.24	2.8 ± 0.12	–
FGRKNDRQCMIMDELLS [DIB1]	2.57 ± 0.047	2.65 ± 0.038	2.49 ± 0.057	2.73 ± 0.034
SGNDSMAGKVLILTSHN [BRR2]	2.13 ± 0.058	2.28 ± 0.072	1.63 ± 0.091	2.36 ± 0.089
VTNNVEEGEFIIDLYSL [TAF14]	3.38 ± 0.085	3.48 ± 0.083	3.58 ± 0.057	3.54 ± 0.06
ESITKAMEFIFGNSLIC [SMC2]	2.46 ± 0.071	1.55 ± 0.066	1.39 ± 0.092	1.89 ± 0.046
IQQLHSVLNPFLLRRVK [ISW2]	2.06 ± 0.061	1.99 ± 0.05	2.2 ± 0.059	2.37 ± 0.041
LDPISLILIPGETMWVP [RPN13]	2.28 ± 0.095	2.45 ± 0.049	2.95 ± 0.093	3.4 ± 0.12
STKSNKAKNPLTHSTPK [RPL8B]	2.33 ± 0.069	2.83 ± 0.059	2.94 ± 0.058	2.73 ± 0.071
LFQLLNALTVGDFDKFD [RPN9]	3.1 ± 0.29	2.36 ± 0.26	–	1.8 ± 0.28
LHKFLTKWGLINYQVDS [SWI3]	2.46 ± 0.17	2.71 ± 0.12	2.03 ± 0.078	2.12 ± 0.072
PGSSITETEVEREQPQE [SRB4]	3.09 ± 0.093	3.38 ± 0.12	3.07 ± 0.075	3.35 ± 0.078
LGSGSNVDVCVMEIGKD [PUP1]	3.59 ± 0.089	3.53 ± 0.087	3.4 ± 0.06	3.51 ± 0.091

Sequence	protein stability index (doa10∆)	protein stability index (pdr5∆)	protein stability index (san1∆)	protein stability index (ubr1∆)
KMENFEFLPLSLHILMI [SRB8]	2.79 ± 0.077	2.8 ± 0.054	1.91 ± 0.076	2.85 ± 0.06
AYSMGAQNQGGQVSMSQ [PGD1]	3.15 ± 0.095	3.2 ± 0.084	3.02 ± 0.094	3.22 ± 0.076
YFLHLSVFNAELLKLLN [YCS4]	1.26 ± 0.053	1.61 ± 0.058	1.8 ± 0.099	1.51 ± 0.053
GGFTAYGGADYGEATSP [RPO21]	1.79 ± 0.093	1.9 ± 0.069	1.98 ± 0.099	2.01 ± 0.068
REISNFSKGDADVLVDR [SRP72]	3.22 ± 0.098	3.19 ± 0.096	3.03 ± 0.097	3.06 ± 0.079
KGPAIDELSSKELVECH [NNF1]	3.04 ± 0.055	3.13 ± 0.068	2.78 ± 0.077	2.82 ± 0.047
LENATWTMRIEGRLLDN [SNF12]	2.64 ± 0.099	2.89 ± 0.12	2.65 ± 0.1	2.92 ± 0.066
VDIYSLPLISTDVLEIS [YMR129W/POM152]	2.06 ± 0.052	2.58 ± 0.049	2.43 ± 0.045	2.44 ± 0.044
IFALCIYNSTDSNSEIL [YML103C/NUP188]	1.39 ± 0.17	2.19 ± 0.075	1.87 ± 0.14	1.95 ± 0.086
PIDIFQIIRRVKEMEPK [SIR3]	3.1 ± 0.13	3.22 ± 0.18	–	2.94 ± 0.29
LVRDSKPSKPFNVDDVL [MED8]	2.48 ± 0.055	2.57 ± 0.044	2.46 ± 0.051	2.5 ± 0.047
KELTRIPGEEVEETEVP [MED4]	3.21 ± 0.16	3.23 ± 0.21	3.02 ± 0.13	–
ESSLTISLYFNDILDEL [ECM29]	1.89 ± 0.06	2.25 ± 0.051	2.38 ± 0.07	2.4 ± 0.061
DWIRFVSTKTNEYRLAF [RPL22A]	2.03 ± 0.039	2.17 ± 0.045	2.75 ± 0.064	2.62 ± 0.042
NNGSKDHGDGILLIDSE [RPN9]	3.37 ± 0.16	3.19 ± 0.17	3.38 ± 0.063	3.41 ± 0.21
ELNVKHVKQCQETCDKL [SMC2]	3 ± 0.18	3.47 ± 0.2	3.09 ± 0.082	3.31 ± 0.051
KKLLEVHDIFSKIFNES [CDC53]	2.84 ± 0.072	2.71 ± 0.059	2.77 ± 0.057	2.66 ± 0.05
NESLIPLINLALIDTEF [YML103C/NUP188]	2.51 ± 0.11	1.9 ± 0.088	1.32 ± 0.15	2.1 ± 0.12
LSALFTISSKPDILATD [YCS4]	2.32 ± 0.14	2.78 ± 0.14	2.72 ± 0.088	2.98 ± 0.11
LSKRQKRKSAQEPELSL [SMC4]	3.17 ± 0.11	3.15 ± 0.078	3.09 ± 0.097	3.4 ± 0.1
SVVLTLQAFGESESTTN [RPB3]	2.42 ± 0.12	2.51 ± 0.088	1.67 ± 0.11	1.18 ± 0.052
QSLNEMVKLIVMLCTLT [YJL039C/NUP192]	2.52 ± 0.071	2.63 ± 0.057	2.81 ± 0.11	2.27 ± 0.058
HGKRRSQVVETHKVTDI [YMR129W/POM152]	3.35 ± 0.13	3.01 ± 0.13	3.18 ± 0.064	3.2 ± 0.058
EVRGQVPVIESAGFETD [SNU114]	1.37 ± 0.052	1.59 ± 0.06	1.49 ± 0.15	1.86 ± 0.057
GVIDDSFDVAISTACPR [SMC4]	2.59 ± 0.077	3.09 ± 0.046	2.45 ± 0.058	2.7 ± 0.049
ERLDKDKDRDTRRKRRQ [SNF5]	2.82 ± 0.13	3.27 ± 0.21	2.9 ± 0.11	3.46 ± 0.13
